In patent US20160051704A1, “MOLECULAR IMAGING PROBES FOR LUNG CANCER INTRAOPERATIVE GUIDANCE” (H. Lee Moffitt Cancer Center and Research Institute, Inc., priority 2013, published 2016) one finds Bmax data, which are given here for 1 molecule.

The target of this assay is T1, delta opioid receptor (δOR) on HCT-116/δOR cells, P41143.
T1 chain: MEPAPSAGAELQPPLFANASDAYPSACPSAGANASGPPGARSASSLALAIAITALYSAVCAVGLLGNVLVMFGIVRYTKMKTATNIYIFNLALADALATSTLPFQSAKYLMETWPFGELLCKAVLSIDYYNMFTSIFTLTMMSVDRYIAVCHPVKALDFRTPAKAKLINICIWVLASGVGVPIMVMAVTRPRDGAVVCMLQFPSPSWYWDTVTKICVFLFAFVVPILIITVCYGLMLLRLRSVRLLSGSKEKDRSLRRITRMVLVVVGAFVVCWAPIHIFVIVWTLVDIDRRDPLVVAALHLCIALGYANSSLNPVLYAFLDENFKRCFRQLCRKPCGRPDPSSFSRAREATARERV
Kind of assay: in cyto time-resolved fluorescence saturation binding on HCT-116/δOR cells.

B1: Europium (Eu)-diethylenetriaminepentaacetic acid (DTPA)[D-Pen2, L-Cys5] enkephalin (DPLCE) (peptide)
chain: YCGFC
modifications: not checked
Molecule B1 came in with a Bmax of 3.01e+06 AFU.
